Test results published in US20100160220A1.

Assays:
[1] = biological target: PTH1R tagged with HA (human) (UniProt Q03431); experiment: PTH ligand incubated with transfected cells for 15 seconds, plasma membrane isolated, bound ligand by Western blot
PTH1R-YFP2 = PTH1R-YFP2 (UniProt Q03431); experiment: YFP protein-fragment complementation assay with PTH1R-YFP2 in living cells
PTH1R-YFP2, sequence (Q03431 27-593): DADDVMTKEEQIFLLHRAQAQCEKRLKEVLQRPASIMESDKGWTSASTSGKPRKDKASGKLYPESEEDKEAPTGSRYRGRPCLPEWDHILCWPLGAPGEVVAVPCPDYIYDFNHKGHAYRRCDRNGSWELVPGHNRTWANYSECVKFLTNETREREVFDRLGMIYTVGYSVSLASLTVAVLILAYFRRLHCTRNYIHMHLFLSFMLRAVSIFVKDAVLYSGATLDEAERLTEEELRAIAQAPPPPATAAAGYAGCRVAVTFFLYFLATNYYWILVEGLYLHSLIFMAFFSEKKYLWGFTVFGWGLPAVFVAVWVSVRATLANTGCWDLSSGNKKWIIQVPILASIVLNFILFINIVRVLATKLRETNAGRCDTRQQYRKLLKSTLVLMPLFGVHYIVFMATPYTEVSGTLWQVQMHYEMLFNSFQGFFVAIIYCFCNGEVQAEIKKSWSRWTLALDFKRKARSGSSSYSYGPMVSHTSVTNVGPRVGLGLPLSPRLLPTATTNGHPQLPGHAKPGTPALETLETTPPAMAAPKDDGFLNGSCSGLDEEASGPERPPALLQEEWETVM

PTH1R tagged with HA (human), sequence (Q03431 27-593): as above

reduction of binding of PTH ligands versus vector control (cells overexpressing WT TβRII) [1] [%]	YFP fluorescence intensity relative to WT TβRII (fold of WT TβRII-YFP1) (PTH1R-YFP2)	Substance
50	–	PTH ligand (form not stated, Example 12) (from UniProt P01270 32-65)
–	0.167	kinase dead TβRII (K277A)-YFP1 (from UniProt P37173 23-567) (receptor)
